Measurements: a protein production outcome set (Wang et al. 2014)

Experiment: label from the status in PepcDB records

MKVDDTEEASQKPEDILAQGKDEARLSLEERRKLFQSKGLSAEESLVSVSTEDTLFQKEEDSKVYPLSMTWSFGWNSSLPVYYMREDRRVILYTCAHTAIMYDVVRNTQYHLQGHPNIISCLCVSEDRRWIATADEGPDCLIIIWDSFTGIPVHTIFDSCPEGNGMRSIAITRDSKFLATISDSATQKVCIWKWTLAVETPACTLELPKEYGFQDNLVFNPANNKELVSNSKTQAIYYCWFEDKGILAHSAPVLTEKTFNKLVGKFSQSVFHLKLPQVLSATKEGKLVVWDIHYPSSTSSSAISAFPFIKPRKLVHLQKEAITVLMTIDSYIVTGDIKGNIKFYDHTLSVVNWYSNFKLGAIRTLSFSKTIPSLPTEKSNLPTDCTLRGDLFVVRNFIIGTFDATVYHMTVDGTKLEKLFVEPRDAVYAVSCHPYQPLIAVGSVCGMIKVWDFEKKVYLFSRTFEKGLGVQCLTYNPEGALLGAGFTEGTVYILDAMSLENESPEPFKYSKSSVSHCCFSHDSNYMATADVNFTVAVYMVVVKNGQRVWEYLARLRSHQNSIQSLLFGVHLDSNEPRLLSLGKDRFLIEYNLVKSCKDHLDVLDVHRTDQGNYPTCMIWYPPLTKELFLLICNSGYKVKLFNATTKMCRKTLLGPAYGSPIEHAQVLPVKSTLELQKRYLVFINKDKVGLQILPVDGNPHKTCAIVCHPNGVAGMALSYDGRFAFTAGGQDRSVVQWKINLGALEAAVSLGGEDLTPFYGLVSGGREGKFYRELEDYFYYSQIRSQGIDTMETRQVSEHICLSELPFVMRAIGFYPSEEKIEDMFNEIKFSEYVETGKLIDKINLPDFLKVYLNHRPPFGNTMDGIQNSFNVLGYTNSEGKKAIRREDFLNLLLTKGEHMTEEEMIDCFSTLFGLTPEGWKSEPAATCINGPEICLQKELPEEITAEIFTTEILGLTLSDSSEQLIQ
protein production: failed

MKQTPPLISFITICYNGLDDTCMLIESLRDTISSVSYEIIVVDNASRQDEASLIQERYPFVRTLRSEKNLGFSGGNNLGIQIAQGKYLFLINNDTYLTEDGLPALIERLESDPRIGAVSPKIRFAFPPQSIQFAGYTKLSRYTMRNKALGMGCPDDGTFDTPRPSAYLHGAALMLKREVIWKAGLMPEIYFLYYEELDWCTSMTRAGYQLWYEPRCTIFHKESQSTGRQSPLRTFYMMRNRMLYAWRNLPGMERCLAIAYQMLIVAPKDSLCFVLKGEPKLAKAVWHGVKGFWKLCLEHHHHHH
protein production: not failed

MRTEPQPLHLPVFRAILASMGEGIIFADADDRIRYINAAAEDIRGIIAGNYLGRSIVSIHSPASEGRIRRLIAGLKGGDIPFSTRVIHVREKIFENSYYPIRNENGIYEGTLLISRDITEKELLKEENNSLREQVRADFACGGMIGKSHAMEPVFHMIRATAALDSTILISGESGTGKELVACAIHQMSPRHKNPFVKVNCAALPETLLESELFGHERGAFTGAVRERKGKFEQAHLGTIFLDEIGEMPLAAQAKLLRVIQGKTLERIGGNREIAVDVRIIAATNKDLRREVERGAFREDLFYRLNVIPIHLPPLRERREDILPLAEHFLSVYAERMRKPVHCIAPDARKALLDYDYPGNVRELENAIERGVALSMGETITLADLAPYFVTGASAAPAGAALPKEPPTATLSRAVSVAEQEAIREALQTTGNRKGVAAKLLGISRKTLWEKLKQMERT
protein production: failed

MKNMVIVLTGVTVVAGALLGYVNELTKEPIAQANAKALSDAIAIVVPGFDNNPAEAPETIELEGVTYKIYKATKGGEFIGAAVESSANGFGGALNVLVGFDKEGNIIDYSLLSHAETPGLGSKAADWFKKGGKGDITGMNPGQKALVVNKDGGQIDAITASTITTRAFLKAVNNAYAAYSGQNVDGSSGATQQVSETAADDPKAAKAQCEGTQDCCGQACDSAACKAACGGKCDPANCDKADCKKAECPKQDCKNKK
protein production: failed

MKFLTVSDDMNFLRQVNTLVAGKGDMDSVIIGEGDAKGLGSKVLYRAKKGTPFDAVSEGILKIAGNYDYIAIGSTEVGREIAGYLSFKTGFYTATEIFSLEFNGQKAHTKRFFYGGKTVIEEESDARILTVAPGVIEAKDLGTTPEIRDLEIGQSRIKITKFV
protein production: not failed

MSDPAEVPTASPLLETVGLACERDWRMLFERLDLRLAAGEMLQVVGPNGSGKTSLLRLLSGLMQPTAGEVRLNGRPLAEQRGELARSLLWIGHAAGIKGLLSAEENLTWLCALHQPASREAIWQALADVGLRGFEDVPCHTLSAGQQRRVALARLYLDAPPLWILDEPFTALDKQGVAQLETHLAGHCQRGGMVVLTTHHSLQQVPAGYRELDLGALKAASGATVEPALGDPA
protein production: failed

VRVLSYDKEKLNWLYKDPQGLVQGPFSLTQLKAWSDAEYFTKQFRVWMTGESMESAVLLTDVLRL
protein production: not failed

MKKVIGAATATVFGLGAFTTTATAETIVTADVLNVREKPTTESKVVEKVKNGEELKVINTEDGWSKIELNGKEVFVSSEFTKDIYHVTADLLNVRSESNTESKILGRLKKDDVIESTNQVKDGWLQFEYKGKTAYVNVSFLSSKAPIEKKADEKTKQVAKVQKSVKAKEEAKTQKITKAKETIKPKEEVKVQEVAKPKEEVKVQEVAKPKEEVKVQEVAKPKEEVKVQEVVKPKEEVKVQEVVKPKEEVKVQEVAKAKEEAKVQEIAKAKEEAKAQEIAKAKEEAKAQEIAKAKEEAKAQEIAKAKEEAKAQEIAKAKEEAKAQEIAKAKEEAKAQEIAKAKEEAKAQEIAKAKEEAKAQEIAKAKEEAKAQEIAKAKEEAKEREIAKAKEEAKAREIAKAKEEEKAREALKAKEESKNNVQSAKRELTVVATAYTADPSENGTYGGRVLTAMGHDLTANPNMRIIAVDPKVIPLGSKVWVEGYGEAIAGDTGSAIKGNRIDVLMGSKSKAMNWGRQTVKVKILLEHHHHHH
protein production: failed

MKIELLLLFLVFAWDGYFFLRYIIGLTRKYRTIQWNPTVSVIIPAYNEEENIESAIKAALSQDYPVSEVIVVDDGSEDKTYERALRMAQEDTRVKVIRIPHGGKARALNEGIKVARGEIIVTTDADSYMAKDAVRRLVERFYSPDIVGVGGQIRVVVESFLTLVQDIEHLRIAMYRRAKELEDLSLAPGPLSAFRREALDQIGGIAESIVEDYATTKLLKKVGKVVYAPKAKLFTRMPITLKELWRQRKRWFIGDLNHLEPKDYAILMLSDFIAFLDVILPLLFIVRGEFLLLGAFFGFEILTMLPPIIFEGGSIIEALSFPFILIFLAMFYLGIHIYGYLTKLNAKIFK
protein production: failed

MTKQPDLLKVDWSAIPAPDDDGAAAHLPGARIQPVALPATDGSSVTLSSLPGRTVLFIYPRTGVPGQISLVDDWDMIPGARGCTPQTCSFRDLFTDLKTAGADAVFGLSTQSSAYQSEMATRLHLPFPVLSDESLELTRALNMPTMQVAGMTLLKRMALIIDDGRISHVFYPVFPPDRNAGDVLEWLKANPR
protein production: failed

MEGSQQTITSKQLVRMLKDASRGSKGKGSGEMKFCFLIGAGASISSGIPSGAKLAWDWLQQIKEDCDGEDFEDWKIEIKMPDQHIEERVGEFYPEIYEKRFGHAPETGYDYIRGLMEGREPSLGYLILANIMVREKHNVVITTNFDNLLEDAIRTYTKEKPFIAGHEALADYVPKRSDRPIILKLHRDLFLQPFSDQLNTDILQAAWESILGKFLSDYHLIVLGYGGNDGSLMNYLLKLKNRKPIYWCVRNTDKATSKSLWNTLSPKAKRLLKNDGYLVPIDDFDRFMYDCYAALGYKFLEGIEKIEKPKSIHEILKPNYARIESIQTQLRQLSQTEEELSKESFQSIKSFLPDSWMWILKANQEKDIDKKDKIYREGIAKYPQDANLLGDYADFLCDICHD
protein production: not failed

SGCIQSITCKARIRRENIVVYDVCATIDQCPTRIEETSPIVLRYKTPYFKASARVVMPPIPRHETWVVGWIQACNQMEFFNTYSDLGMSSWELPDLREGRVKAISDSDGVSYPWYGNTTETVTLVGPTNKISRFSVSMNDNFYPSVTWAVPVSDSNVPLLTRIKRDQSFTTWLVAMNTTTKEKIILQTIKWRMRVDIEVDPLQLLGQRARLVGRTQQEQPRILSRMEPIPPNALVKPNANDAQVLMWRPKRGPPLVVIPPK
protein production: not failed

MTIYNQAIESYDEKMAKDVIMLAGRILLESGAEGSRVEDTMTRIAITLGHKESNSFVTNTVINFMLHDESYPRMYRIRTRDTNLHRISRTNGISRRLALGDISLEDAFQELQKIYQEQSIKNHYLFYKFIAAAVISVSFLYLQGGHLTDVLTALLAGSFGYIVVEILQQKLHAQFIPEFMGALVIGLVTIIGHNLIPGGSISTIIIAAVMPIVPGVLITNAIQDLFGGHMLMFTTKSLEALVTAFGIGAGVSTVLIIF
protein production: failed

GKFGFNDAVGHPKTLKGAAYGRFANSFNLANNKISMDPDGNWMNKIYNEAELAEMDGLNYNWLDEAWSGAFTMNHSVNVSGGSEKATYFAGASYYTQGANLGKQDYNRWNFRAGVDIKLTSDLKFSATIAGNQQETTSSFTKGLSNLNGYGGTKPGESGDYLVLAHMPNYLPWEITLDDGNTYYTSPLLNSYSSAGNATSGNKMSTWNYFAMENNDGSYSTNDNFSYDANFSVTYAVPFIKGLSFKGSYALKRSASDSEQAFMPFTLAYLKASDALTPGNRFYSDHPSVSDYQLKEFTGSTRVVYSDQMAKNEQLNFYVNYEGKFGKHSIAAMAAVEKMQAYMHSKRMLFNNPDPDGYLGTSPSAGAMDTGNSITYKYKQGSLSYLGRVSYNYADKYLFQFLFRSDASTKFAPANYWGFFPGVSVGWVASEEEFMKKLLPSWFEYMKVRFSWGRTGKDNIKAWGWKQLYSLDPSRGYGFGSNGGILQTGIKPGATPNPDAHWDNTDKFNLGFDLRFLNNRLSATVDVYYDINSDILNQNIGGIIGTPIFAGGALTEVNFGRIDAFGSEFSLNWRDKIDQVKYNIGVNFGFNGNRVREWPQSAPSYIQENSVREGASTIFPTYGYKVWRGTSSGDGILRNSDDIENYWNYLSANAEAAGTSPEYLGVKDASQLKPGMLAYQDLGGVLNEDGTQSGPDGRIAKTQDYAKLNKSGKTYGFTTKLGAEWKGISFNMMIATSWGGYRQIDVNKITTSSGDMLWTPDSFWEDMFDERNNTTGKYPNLGLDNRISGSVIAPSDFWSISTFRCYIRNLSIGYTLPKAWLSPLKIQSAKLSLTGNNLW
protein production: failed

MGTFIEPSKVTLKDYLNHWLEIKSMSIEKSTFAGYKAFINQHVIPSIGMVTLHKLNVIHIQKCYKTAIDKGIANNSILLMHRILKSALNLAVKQNIISRNPADFAEIPLEHHHHHH
protein production: failed

MSDTVLTGLLDTVWQQFGRGTKDRHHPARHPTLATIGTDGPDLRTLVLRAASHAEATLEFHTDAASPKVAHIRRDARVAIHIWIPKASLQVRAKAIAKILPGDPNLFAQLPEAARMNYQGPVPGTPLPAEPDATPNRFTRLICHLSEIDVLHLTTPHQRAVYTAPDWRGIWVSP
protein production: not failed

MRENIIEFIPKEKPCSYLKEERSLFRYFHIEECSSDLYQALLERGWRRFGKYFFVPICKNCKACLSVRKPLANLEFSRSFKRVLSKNRQTGLVIQRPMITEAHLKLYDRYHRRMSEKKGWEYSPITMESYYEMFVEGSGEFGYEFAYYRDERLVGIALVDILERSLSAVYCFYDHDYSDFSLGIFSILKQLELAKRLKIDYFYPGYWIKNHPSMGYKERFAPYEILRNEPDIDALPEWSLQGENE
protein production: failed

NFSNRVQDVIRLSREEALRLGHDYIGTEHLLLGLIREGEGIGAKILKNLKVDLFQLKQKIEENTHPKVPATQMGNVPLTKQAEKVLKITYLEAKICKSTIIGTEHLLLSILKGDDNIAAQILEQFGVTYDQVRDELMTITT
protein production: not failed
